Assay results taken from PMC9888711, “Pneumococcal capsule expression is controlled through a conserved, distal cis-regulatory element during infection” (PLOS Pathogens, 2023).
Several values for one entry are separate records, joined by “and”; a condition that tells them apart may be missing. Equal values may be shown once.

Assays:
[1] = biological target: SpxR (SPD_0969), full-length recombinant (Streptococcus pneumoniae D39); test: SEC-MALS; Superdex 200 Increase 10/300 GL, 50 mM Tris-Cl pH 7.0, 500 mM NaCl, 1 mM TCEP, 70 uM, 25 C; no DNA
[2] = biological target: SpxR (SPD_0969), full-length recombinant (Streptococcus pneumoniae D39); test: SEC; Superose 6 Increase 10/300 GL, 50 mM Tris-Cl pH 7.0, 500 mM NaCl, 1 mM TCEP; 300 uL at 70 uM; calibrated with molecular weight standards
[3] = biological target: SpxR (SPD_0969), full-length recombinant (Streptococcus pneumoniae D39); test: negative stain electron microscopy; SpxR with 37-CE DNA in high salt (50 mM Tris pH 7.0, 500 mM NaCl, 1 mM TCEP); 3D reconstruction, C2 symmetry, 20.9 A
[4] = biological target: SpxR (SPD_0969), full-length recombinant (Streptococcus pneumoniae D39); test: negative stain electron microscopy; SpxR with 37-CE DNA in low salt (final 50 mM NaCl, HEPES pH 7.5, 5 mM MgCl2, 1 mM CaCl2); 3D reconstruction, C3 symmetry, 21.5 A
CpsR [5] = biological target: T1, CpsR (Streptococcus pneumoniae D39, UniProt A0A0H2ZMA3 1-247); test: EMSA; EMSA: 20 mM HEPES pH 7.2, 50 mM NaCl, 5 mM MgCl2, 1 mM CaCl2, 0.1 mM EDTA, 12% glycerol, 10 mM DTT, 0.5 uM DNA, 400 ng poly(dI-dC); FP: same salts, 2% glycerol, 10 nM DNA (high salt 500 mM NaCl; Fig 5 legend says Tris pH 7.0); temperature not stated; details: protein: recombinant; tags: His6-SUMO removed by Ulp1; chain copies: 2; label: 6-FAM forward; blunt
SpxRDBD [6] = biological target: T2, SpxRDBD (Streptococcus pneumoniae D39, UniProt A0A0H2ZR90 1-63); test: EMSA; strongest of the extended truncations; EMSA: 20 mM HEPES pH 7.2, 50 mM NaCl, 5 mM MgCl2, 1 mM CaCl2, 0.1 mM EDTA, 12% glycerol, 10 mM DTT, 0.5 uM DNA, 400 ng poly(dI-dC); FP: same salts, 2% glycerol, 10 nM DNA (high salt 500 mM NaCl; Fig 5 legend says Tris pH 7.0); temperature not stated; details: protein: recombinant; tags: His6-SUMO removed by Ulp1; label: 6-FAM forward; blunt
SpxR [7] = biological target: T3, SpxR (Streptococcus pneumoniae D39, UniProt A0A0H2ZR90 1-425); test: EMSA; shift begins at 312 nM protein; competed by unlabeled 37-CE; EMSA: 20 mM HEPES pH 7.2, 50 mM NaCl, 5 mM MgCl2, 1 mM CaCl2, 0.1 mM EDTA, 12% glycerol, 10 mM DTT, 0.5 uM DNA, 400 ng poly(dI-dC); FP: same salts, 2% glycerol, 10 nM DNA (high salt 500 mM NaCl; Fig 5 legend says Tris pH 7.0); temperature not stated; details: protein: recombinant; tags: His6-SUMO removed by Ulp1; chain copies: 3; label: 6-FAM on forward strand 5' (EMSA, FP); blunt
CpsR [8] = biological target: T1, CpsR; test: EMSA; shift begins at 625 nM protein; competed by unlabeled 37-CE; EMSA: 20 mM HEPES pH 7.2, 50 mM NaCl, 5 mM MgCl2, 1 mM CaCl2, 0.1 mM EDTA, 12% glycerol, 10 mM DTT, 0.5 uM DNA, 400 ng poly(dI-dC); FP: same salts, 2% glycerol, 10 nM DNA (high salt 500 mM NaCl; Fig 5 legend says Tris pH 7.0); temperature not stated; details: protein: recombinant; tags: His6-SUMO removed by Ulp1; chain copies: 2; label: 6-FAM on forward strand 5' (EMSA, FP); blunt
SpxR [9] = biological target: T3, SpxR; test: fluorescence polarization; 50 mM NaCl; EMSA: 20 mM HEPES pH 7.2, 50 mM NaCl, 5 mM MgCl2, 1 mM CaCl2, 0.1 mM EDTA, 12% glycerol, 10 mM DTT, 0.5 uM DNA, 400 ng poly(dI-dC); FP: same salts, 2% glycerol, 10 nM DNA (high salt 500 mM NaCl; Fig 5 legend says Tris pH 7.0); temperature not stated; details: protein: recombinant; tags: His6-SUMO removed by Ulp1; chain copies: 3; label: 6-FAM forward; blunt
SpxRDBD [10] = biological target: T2, SpxRDBD; test: EMSA; EMSA: 20 mM HEPES pH 7.2, 50 mM NaCl, 5 mM MgCl2, 1 mM CaCl2, 0.1 mM EDTA, 12% glycerol, 10 mM DTT, 0.5 uM DNA, 400 ng poly(dI-dC); FP: same salts, 2% glycerol, 10 nM DNA (high salt 500 mM NaCl; Fig 5 legend says Tris pH 7.0); temperature not stated; details: protein: recombinant; tags: His6-SUMO removed by Ulp1; label: 6-FAM forward; blunt
SpxRDBD [11] = biological target: T2, SpxRDBD; test: EMSA; second to 5'+10; EMSA: 20 mM HEPES pH 7.2, 50 mM NaCl, 5 mM MgCl2, 1 mM CaCl2, 0.1 mM EDTA, 12% glycerol, 10 mM DTT, 0.5 uM DNA, 400 ng poly(dI-dC); FP: same salts, 2% glycerol, 10 nM DNA (high salt 500 mM NaCl; Fig 5 legend says Tris pH 7.0); temperature not stated; details: protein: recombinant; tags: His6-SUMO removed by Ulp1; label: 6-FAM forward; blunt
[12] = biological target: the molecule itself; test: SEC; Superose 6 Increase 10/300 GL, 50 mM Tris-Cl pH 7.0, 500 mM NaCl, 1 mM TCEP; 300 uL at 70 uM; calibrated with molecular weight standards

Question: Which stoichiometry N [1] does the source give for “SpxR (SPD_0969), full-length recombinant (natural protein)” here?
Answer: Its stoichiometry N is 4 and 8.

Question: And the stoichiometry N [2]?
Answer: Its stoichiometry N is 4.

Question: And the stoichiometry N [3]?
Answer: Its stoichiometry N is 4.

Question: And the stoichiometry N [4]?
Answer: Its stoichiometry N is 3.

B1: 37-CE 5'+10 (dsDNA)
DNA 1: TGTGTACTATATTATATTGA
DNA 2: TCAATATAATATAGTACACA
Question: Does B1 bind (CpsR [5])?
Answer: Result: binds

Question: Does B1 bind (SpxRDBD [6])?
Answer: Result: binds

B2: 37-CE (dsDNA)
DNA 1: TGTGTACTATATTATATTGAAACTAGAATAGTACACA
DNA 2: TGTGTACTATTCTAGTTTCAATATAATATAGTACACA
Question: Does B2 bind (SpxR [7])?
Answer: Result: binds

Question: Does B2 bind (CpsR [8])?
Answer: Result: binds

B3: 21-CE (dsDNA)
DNA 1: GTGTACTATATTATATTGAAA
DNA 2: TTTCAATATAATATAGTACAC
Question: B3 was tested. Which Kd (SpxR [9]) did it give?
Answer: The Kd was 71 nM.

B4: 37-CE spacer (17 bp) (dsDNA)
DNA 1: ATTATATTGAAACTAGA
DNA 2: TCTAGTTTCAATATAAT
Question: Does B4 bind (SpxRDBD [10])?
Answer: Result: no binding

Question: Does B4 bind (CpsR [5])?
Answer: Result: no binding

B5: 21-CE SpxR-only (dsDNA)
DNA 1: GTGTACTAGAGTAGTTTGAAA
DNA 2: TTTCAAACTACTCTAGTACAC
Question: What does the source list for B5?
Answer: binding result (CpsR [5]): no binding; Kd (SpxR [9]): 56 nM

B6: 37-CE 3'+10 (dsDNA)
DNA 1: TGAAACTAGAATAGTACACA
DNA 2: TGTGTACTATTCTAGTTTCA
Question: Does B6 bind (CpsR [5])?
Answer: Result: no binding

Question: Does B6 bind (SpxRDBD [11])?
Answer: Result: binds

B7: 37-CE 5' (10 bp) (dsDNA)
DNA 1: TGTGTACTAT
DNA 2: ATAGTACACA
Question: Does B7 bind (SpxRDBD [10])?
Answer: Result: no binding

Question: Does B7 bind (CpsR [5])?
Answer: Result: no binding

B8: 21-CE CpsR-only (dsDNA)
DNA 1: GTGTGAGATATTATATTGAAA
DNA 2: TTTCAATATAATATCTCACAC
Question: What does the source list for B8?
Answer: binding result (SpxRDBD [10]): no binding; Kd (SpxR [9]): 104 nM

B9: 21-CE Neither (dsDNA)
DNA 1: GTGTGAGAGAGTAGTTTGAAA
DNA 2: TTTCAAACTACTCTCTCACAC
Question: Which results are given for B9?
Answer: binding result (SpxRDBD [10]): no binding; binding result (CpsR [5]): no binding

B10: CpsR (SPD_0064), recombinant (natural protein)
chain: MEKENRGKNMAIPKYQYIKDELKNKIISGQFSSGDKFYTEAELISMYDVSSITVVRALNDLAKDGYIVRQQGKGTFVSRARKHKLVEFSDIELFNAKDDKVTVLSIERGNKLVYLEKLGLRGDQFYYKIERIRESNGVVYIYHTSYIPEQYINANYPNLEYYSSIYNRFKLDYHIHMNDEHFEEINEIVFPTPEHAASVLGVDEQFPTVLQTKITKLESTGQVLEYSETYKRSDYYKIKFISCDRDH
notes: CpsR (also called AgaR), transcription factor of Streptococcus pneumoniae D39, locus SPD_0064; 65.72 kDa as a dimer; cpsR amplified from D39 genomic DNA into pE-SUMO; also called AgaR; source: E. coli T7 Express lysY/Iq, purified (Ni-NTA, Ulp1 cleavage, SEC)
Question: B10 was tested. Which “stoichiometry N” value [12] did it give?
Answer: The value was 2.
